From patent publication US20140302026A1 (published 2014)
One block for each molecule: values may come before it.

Legend:
[1] = molecular target: artificial endostatin dimer (UniProt P39060); assay: SPR (Biacore)
[2] = molecular target: fibronectin (UniProt P02751 32-2477); assay: SPR (Biacore)

Kd [1]: 4.84 nM
Molecule: fibronectin (from UniProt P02751 32-2477)

Kd [2]: 8.4 nM
B1: human NC-1 (hNC-1) trimer of collagen 18 (other)
chain: SGVRLWATRQAMLGQVHEVPEGWLIFVAEQEELYVRVQNGFRKVQLEARTPLPRGTDNEVAALQPPVVQLHDSNPYPRREHPHPTARPWRADDILASPPRLPEPQPYPGAPHHSSYVHLRPARPTSPPAHSHRDFQPVLHLVALNSPLSGGMRGIRGADFQCFQQARAVGLAGTFRAFLSSRLQDLYSIVRRADRAAVPIVNLKDELLFPSWEALFSGSEGPLKPGARIFSFDGKDVLRHPTWPQKSVWHGSDPNGRRLTESYCETWRTEAPSATGQASSLLGGRLLGQSAASCHHAYIVLCIENSFMTASK

Kd [2]: 1.35 nM
B2: Human VEGF (R&D) (ligand)
chain: APMAEGGGQNHHEVVKFMDVYQRSYCHPIETLVDIFQEYPDEIEYIFKPSCVPLMRCGGCCNDEGLECVPTEESNITMQIMRIKPHQGQHIGEMSFLQHNKCECRPKKDRARQENPCGPCSERRKHLFVQDPQTCKCSCKNTDSRCKARQLELNERTCRCDKPRR
